# Measurements from the nanobody polyreactivity screen of Harvey et al. (2022).
# Experiment: yeast display, Sf9 membrane polyspecificity reagent, FACS + sequencing; frameworks hold sequencing errors
# Outline: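 Synthetic nanobody libraries on Saccharomyces cerevisiae BJ5465 were galactose-induced for 36–48 hours, stained 1 hour at 4 °C with 10% biotinylated, detergent-solubilized Sf9 membrane reagent and enriched on streptavidin microbeads. FACS then separated cells into low and high (top ~1%) gates by anti-HA (expression) and streptavidin (reagent binding) fluorescence. Genes were colony-PCR amplified, MiSeq 2 × 250 sequenced and CDR-length filtered. A clone's polyreactivity label is that of its gate of origin.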
row,Sequence,polyreactivity (PSR sort gate)
1,QVQLEESGGGLVQAGGSLRLSCAASGLIFIQYAMVWNRQAPGKERELVAAISGSGVTTYYADSVNGSFTISRDKAMNTVYLQMTSLKPEDTAVYYCNAALRWKYDWGQGTQVTVSS,low polyreactivity
2,QVQLEESGGGLVQAGGSLRLSCAASGLIFVHYTMGWYRQAPGKERELVAAISRSGGSTSYADSVKGRFTISRDTAKNSVYLQMNSLKPEDTAVYYCAAVGSRSGLTPYEYWGQGTQVTVSS,high polyreactivity
3,QVQLEESGGGLVQAGGSLRLSCAASGLILRWNAMGWYRQAPGKERELVATINRGGSTNYADSVKGRFTISRDNAKNTVYLQMNSLKPEDTAVYYCYKARTSQYHHTYWRTYGYWGPGTQVTVSS,low polyreactivity
4,QVQLEESGGGLVQAGGSLRLSCAASGLTFTPNAMGWYRPAPGKEWELVAAITNGGSTNYADSVKGCFTISRDNAKNTVYLQMNSLKPEDTAVYYCAAECSYWFRRYGYWGQGTQVTVSS,high polyreactivity
5,QVQLEESGGGLVQAGGSLRLSCAASGLTFYSYAMGWYRQAPGKERELVAGINYSGDSTHYADSVKGRFTISRDNAKNTVYLQMNSLKPEDTAVYYCASQTFVYRKELLSRYEYWGQGTQVTVSS,high polyreactivity
6,QVQLEESGGGLVQAGGSLRLSCAASGNIFRDYAMGWYRQAPGKERELVAAISWSGGSTYYADSVKGRFTISRDNAKNTVYLQMNSLKPEDTAVYYCAARKPYSYNYWGQGTQVTVSS,high polyreactivity
7,QVQLEESGGGLVQAGGSLRLSCAASGRIFATNAMGWYRQAPGKERELVATITRSAGRTYYADSVKGRFTISRDNAKNTVYLHMNSLKPEDTAVYYCASSYWDTEPVYREYDYWGQGTQVTVSS,low polyreactivity
8,QVQLEESGGGLVQAGGSLRLSCAASGRIFAYYAMGWYRQAPGKERELVAAIRGSGGSTYYADSVKGRFTISRDNAKNTVYLQMNSLKPEDTAVYYCAARTQPKKFYYWGQGTQVTVSS,high polyreactivity
9,QVQLEESGGGLVQAGGSLRLSCAASGRIFFKYSMGWYRQAPGKERELVATISSSTGSTYYADSVKGRFTISRDNAKNTDYLQMNSLKPEDTAVYYCNARVRTQQRWVDYWGQGTQVTVSS,high polyreactivity
10,QVQLEESGGGLVQAGGSLRLSCAASGRIFIAYTMGWYRQAPGKERELVAAITWNGGSTYYADSVKGRFTISRDNAMNTVYLQMNSLKPEDTAVYYWVLVSRPGPKPAREMDYWGQGTQVTVSS,low polyreactivity
11,QVQLEESGGGLVQAGGSLRLSCAASGRIFLWYAMGWYRQAPGKERELVAAISSNGGSTRYADSVKGRFTISRDNAKNTVYLQMNSLKPEDTALYYCNADVHWNRYPYGGNGYGYWGQGTQVTVSS,low polyreactivity
12,QVQLEESGGGLVQAGGSLRLSCAASGRIFLYKIMGSYREAPGQERDLVAAISWGTGSTYADSVKGRFTISRDNAINTVYLQIYRLKPEDTAVYYCDADSFMPPYYHWGQGTQVTVSS,low polyreactivity
13,QVQLEESGGGLVQAGGSLRLSCAASGRIFRYYTMGGYRQAPGKERELVDAISGSGGSTYYADSVKGRFTISRDNAKNTVYLQMNSLKPEDTSVYYCAAAHRYWGQGTQVTVSS,high polyreactivity
14,QVQLEESGGGLVQAGGSLRLSCAASGRIFSGYAMGWYRQAPGIERELVAAIDSVGDTYYADSVKVRFTISRDNAKNTVYLQMNSLKPEDTAVYYCAAERTVRMVLSPTDEMDYWGQGTQVNVSS,low polyreactivity
15,QVQLEESGGGLVQAGGSLRLSCAASGRIFTWYTMGWYRQAPGKEREFVAAITRSGTSTYYADSVKGRFTISRDNAKNTVYLQMNSLKPEDTAVYYCAAGKPRSKYWYDYWGQGTQVTVSS,high polyreactivity
16,QVQLEESGGGLVQAGGSLRLSCAASGRIFWYYDMGWYRQAPGKERELVAAISQRGGSTYYADSVKGRFTISRDNAKNTVYLQMNSLKAEDTAVYYCAKRNPYWATREYWGQGTQVTVSS,high polyreactivity
17,QVQLEESGGGLVQAGGSLRLSCAASGRIFYTYVMGWYRQAPEKERELVAAITGGGSKYYAYSVKGRFTISRDNAKNTVYLQMNSLKPEDTAVSYCAKRSYGDRDERYDSWGQGTQVTVSS,low polyreactivity
18,QVQLEESGGGLVQAGGSLRLSCAASGRILVKNTMGWYRQAPGKERELVAAITSGGNTYYADSVKGRFTISRDNAKNTVYLQMNSLKPEDTAVYYCNKVSNRSGYYWGQGTQVTVSS,high polyreactivity
19,QVQLEESGGGLVQAGGSLRLSCAASGRTFDRYAMGWYRQAPGKERELVAAITWSGGRTYYADSVKGRFTISRVNAKNTVYLQMNSLKPEDTAVYYCAADNSYRGYHSPYDYWGQGTQVTVSS,low polyreactivity
20,QVQLEESGGGLVQAGGSLRLSCAASGRTFGWNGMGWYRQAPGKERELVAVISSGGSTKYADSVKGRFTISRDNAKNTVYLQMNSLKPEDTALYYCAKDWVRSGRRNMDYWGQGTQVTFSS,low polyreactivity
21,QVQLEESGGGLVQAGGSLRLSCAASGRTFNRYVMGWYRQAPGKERELVAAITWRGGSTYYADSVKGRFTISRDNAKTSVYLQMNSLKPEDTAVYYCAARYSGGYSVDAFDYWGQGTQVTVSS,high polyreactivity

row,Sequence,polyreactivity (PSR sort gate)
1,QVQLEESGGGLVQAGGSLRLSCAASGRTFSRNAMGWYIQAPGKERELVAAISQRGVSTYYADSVKGRFTISRDNAMNTVYLQMNSLKPEDTAVYYCNTRGTYRYDYWGQGTQVTVSS,low polyreactivity
2,QVQLEESGGGLVQAGGSLRLSCAASGRTFVLNVMGWYRQAPGKERELVATISGVGSTNYADSVKGRFTISRDNAKNTVYLQMNSLKPEDTAVYYCAKDPHVGRWWDLYSPYYSWGQGTQVTVSS,low polyreactivity
3,QVQLEESGGGLVQAGGSLRLSCAASGRTFVPYAMGWYRQAPGKERELVAAINSGGSTYYADSVKGRFTISRDNAKNTVYLQMNSLKPEDTAVYYCAAEYWNSRFSYAYGYWGQGTQVTVSS,high polyreactivity
4,QVQLEESGGGLVQAGGSLRLSCAASGRTFVRYAMGWYRQATGNERELVAAFSLRGGRTYYADSVKGRFTISRDNAKNTVYLQMNSLKPEDTAVYYCNSRYYIQREYDYWGQGNQVTVSS,high polyreactivity
5,QVQLEESGGGLVQAGGSLRLSCAASGRTFYPYAMGWYRQAPGKEREFVARITWSGGRTYYADSVKGRFTISRDNAKNTVYLQMNSLKPEDTAVYYCAARGHDAVIATRYDYWGQGTQVTVSS,high polyreactivity
6,QVQLEESGGGLVQAGGSLRLSCAASGRTIQDNAMGWYRQAHGKERELVAAIRDNGGSTYYADSVKGRFTISRDNAKNTVFLQMNSLKPEDTAVYYCAADQGTGSYDYWGQGTQVTVSS,low polyreactivity
7,QVQLEESGGGLVQAGGSLRLSCAASGRTSYSNAMGSYRQAPGQERELVAGITYRGGSTYYADSVKGRFTISRDNAKNTVYLQMNSLKPEDTAVYDCAVKYSWQSRFNYWGQGTQVTVSS,high polyreactivity
8,QVQLEESGGGLVQAGGSLRLSCAASGSIFEYYAMGWYRPAPGKERELVAAISSGGPTYYADSVKGRFTISRDNAKNTVYLQMNSLKPEDTAVYYCNADLWYPDYAYWGQGTQLTVSS,low polyreactivity
9,QVQLEESGGGLVQAGGSLRLSCAASGSIFFWYAMGWSRQAPGKERELVAAISSSGSTNYADSVKGRFTISRDNAKNTVYLQMNSLKPEDTAVYYCATRKYVYYPVQYEFWGQGTQVTVSS,high polyreactivity
10,QVQLEESGGGLVQAGGSLRLSCAASGSIFGLYAMGWYRQAPGKERELVAAINQSGGSTSYADSVKGRFTISRDNAKNTVYLQMNSLKPEDTAVYYCNRVRLNTEGFDYWGQGTQVTVSS,low polyreactivity
11,QVQLEESGGGLVQAGGSLRLSCAASGSIFGYNAMGWYRQAPGKERELVAAINVDGGRTYYADSVKGRFTISRDNAKNTVYLQMNSLTPEDTAVFYCAAAYRLQVGRREYWGQGTQVTVSS,high polyreactivity
12,QVQLEESGGGLVQAGGSLRLSCAASGSIFGYYAMGWYRKATGKEREFVADINSRDGGTYYADSVKGRFTISRDNAKNTVYLQMNSLKPEDTAVYYCAAPYYAAWVAVAIEYDYWGQGTQVTVSS,low polyreactivity
13,QVQLEESGGGLVQAGGSLRLSCAASGSIFRRNVMGWYRQAPGKERELVADINYSGGSTFYADSVKGRFTISRDNAKNTVYLQMNSLKPEDTAVYYCKSSPYREKHGYWGQGTQVTVSS,low polyreactivity
14,QVQLEESGGGLVQAGGSLRLSCAASGSIFRWNAMGWSRQAPGKERELVAAISSGTSTNYADSVKGRFTISRDNAKNTVYVQMNSQKPEDTAVYYCAARGRKNQRRYGYWGQGTQVTVSS,low polyreactivity
15,QVQLEESGGGLVQAGGSLRLSCAASGSIFRYYAMGWYRQAPGKERELVAVITRGGSTYYADSVKGRFTISRDNAKNTVYLQMNSLKPEDTAVYYCAADYWPAGLDRGYWGQGTQVTVSS,low polyreactivity
16,QVQLEESGGGLVQAGGSLRLSCAASGSIFVGYAMGWYRQAPGKEREFVAAINYRGGSTFYADSVKGRFTISRDNAKNTVYLQMNSLKPEDTAVYYCAARYSGNRGVPKGYRYNYWGQGTQVTVSS,low polyreactivity
17,QVQLEESGGGLVQAGGSLRLSCAASGSIFVGYDMGWYRQAPGKVWELVAAITSSGVGSTYYADSVKGRFTISRDNAKNTVYLQMNSLKPEDTAVYYCAARTSLWWFLKYDYWGEGTQVTVSS,low polyreactivity
18,QVQLEESGGGLVQAGGSLRLSCAASGSIFYSNAMGWYRQAPGKERELVAAISVSGVSTYYADSVKGRFTISRDNAKNTVYLQMNSLKPEDTAVYYCAAQYVTRGLYLVAFFSYDYWGQGTQVTVSS,low polyreactivity
19,QVQLEESGGGLVQAGGSLRLSCAASGSILRVNVMVWYRQAPGKERELVAAITSGGRTYYADSVKGRFTISRDNAKNTVYLQMNSLIQEDTAVYYCAAKFFRNTYSYGMDYWGQGTQVTVSS,high polyreactivity
20,QVQLEESGGGLVQAGGSLRLSCAASGSISVRYTMGSYRQAPGKERELVAGISRSGGTTYADSVKGRFTISRDNGKNTVYLQMNSLKQEDTAVYYCAAELRRGSGRSYKGYYYWGQGTQVSVSS,low polyreactivity
